Reference: paper PMC8629194

Molecular target: wt ACE2_(740)-Fc (M31) (human) (UniProt Q9BYF1)
Assay: SPR

Chain of wt ACE2_(740)-Fc (M31) (human) (Q9BYF1 18-740): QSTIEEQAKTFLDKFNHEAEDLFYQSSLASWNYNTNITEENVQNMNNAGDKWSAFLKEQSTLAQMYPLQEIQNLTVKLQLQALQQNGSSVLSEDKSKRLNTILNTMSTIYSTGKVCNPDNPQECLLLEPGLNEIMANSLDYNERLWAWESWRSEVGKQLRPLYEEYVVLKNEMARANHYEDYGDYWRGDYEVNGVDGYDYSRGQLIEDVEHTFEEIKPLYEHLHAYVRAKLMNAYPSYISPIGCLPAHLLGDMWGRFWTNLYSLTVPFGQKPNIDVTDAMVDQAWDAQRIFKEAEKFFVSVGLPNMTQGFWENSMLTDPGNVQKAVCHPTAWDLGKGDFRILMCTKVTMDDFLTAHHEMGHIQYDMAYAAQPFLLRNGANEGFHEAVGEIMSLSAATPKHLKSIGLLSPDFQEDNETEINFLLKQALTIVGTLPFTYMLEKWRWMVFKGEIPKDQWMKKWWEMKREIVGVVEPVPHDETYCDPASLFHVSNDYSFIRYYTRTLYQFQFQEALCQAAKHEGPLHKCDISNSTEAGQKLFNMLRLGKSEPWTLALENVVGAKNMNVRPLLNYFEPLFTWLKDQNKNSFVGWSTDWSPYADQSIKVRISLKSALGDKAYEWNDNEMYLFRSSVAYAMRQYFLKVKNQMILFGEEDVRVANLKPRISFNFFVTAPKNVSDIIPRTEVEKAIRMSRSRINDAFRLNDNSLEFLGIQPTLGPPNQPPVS

SARS-CoV-2 RBDwt (residue 319–541) (from UniProt P0DTC2 319-541) (domain or fragment; other documents disagree on this pair)
Kd: 0.0139 µM
